In PMC2702000 (PLoS Pathogens, 2009):

B1: full length SARS-CoV E protein (natural protein)
chain: MYSFVSEETGTLIVNSVLLFLAFVVFLLVTLAILTALRLCAYCCNIVNVSLVKPTVYVYSRVKNLNSSEGVPDLLV

What was measured:
[1] = target: the molecule itself; assay: solution NMR structure (inter-monomer NOEs, PRE, RDCs)
AUC = target: the molecule itself; assay: AUC

Protein | binding result [1] | stoichiometry N (AUC)
ETGTLIVNSVLLFLAFVVFLLVTLAILTALR [ETM peptide, transmembrane domain of SARS-CoV E (residues 8-38)] | binds | –
B1 | – | 5
EETGTLIVNSVLLFLAFVVFLLVTLAILTALRLCAY [synthetic ETM spanning residues 7-42 of SARS-CoV E] | – | 5
